In paper PMC2759312:

Molecular target: gamma complex labeled with AF488 on delta' (gammac-AF488);beta sliding clamp (Escherichia coli;Escherichia coli, UniProt P06710-2;P28630;P28631;P28905;P28632;P0A988 1-431;1-343;1-334;1-147;1-137;1-366, |)
Assay: fluorescence anisotropy

B1: p/t-DNA-RhX (30-nt primer on 60-nt template) (dsDNA)
DNA 1: TTCAGGTCAGAAGGGTTCTATCTCTGTTGGCCAGAATGTCCCTTTTATTACTGGTCGTGT
DNA 2: ACACGACCAGTAATAAAAGGGACATTCTGG
modifications: C6-amino linker at 5' end of 60mer
Question: Does B1 bind?
Answer: binds
